± gives the uncertainty stated by the source.
B1: Friend leukemia integration 1 transcription factor, residues 116 to 197; numbered along this chain, Q01543 (parent)
chain: NMTTNERRVIVPADPTLWTQEHVRQWLEWAIKEYSLMEIDTSFFQNMDGKELCKMNKEDFLRATTLYNTEVLLSHLSYLRES

Variants of: B1
Experiment: abundance fitness (aPCA) (normalised: wild type 0, dead -1); higher = more abundant; growth selection in yeast, the domain comes from the species named
Conditions: Homo sapiens

Abundance fitness, by site and new letter:
T19: L -0.243 ± 0.063, I -0.529 ± 0.2, S -0.113 ± 0.13, G -0.194 ± 0.097, M -0.39 ± 0.11, N -0.263 ± 0.17, V -0.351 ± 0.12, F -0.79 ± 0.47, W -0.796 ± 0.16, A -0.309 ± 0.14, E -0.597 ± 0.38, P -1.02 ± 0.48, R -0.12 ± 0.077, C -0.296 ± 0.27, K -0.12 ± 0.13, H 0.12 ± 0.12
P12: L -0.344 ± 0.098, M -0.095 ± 0.12, H -0.085 ± 0.11, T -0.021 ± 0.097, Y -0.227 ± 0.19, I -0.193 ± 0.32, A -0.186 ± 0.093, K -0.155 ± 0.12, S 0.079 ± 0.087, C -0.178 ± 0.15, V -0.447 ± 0.1, R -0.053 ± 0.077, F -0.225 ± 0.16, E 0.12 ± 0.15, N -0.021 ± 0.27, G -0.039 ± 0.088, D 0.095 ± 0.15
V11: K 0.148 ± 0.1, Q -0.024 ± 0.093, E 0.015 ± 0.067, W 0.198 ± 0.064, F 0.166 ± 0.086, G 0.061 ± 0.043, N 0.094 ± 0.1, A 0.118 ± 0.07, M 0.114 ± 0.088, C 0.217 ± 0.089, P 0.245 ± 0.11, H -0.032 ± 0.14, S 0.156 ± 0.055, D -0.004 ± 0.077, I -0.019 ± 0.086, Y 0.031 ± 0.1, T 0.077 ± 0.077, R 0.232 ± 0.044
A13: T 0.051 ± 0.077, L -0.003 ± 0.04, E 0.189 ± 0.068, G 0.123 ± 0.05, I 0.048 ± 0.1, M -0.036 ± 0.072, H -0.179 ± 0.14, Q 0.106 ± 0.07, V 0.017 ± 0.055, D 0.121 ± 0.088, R 0.023 ± 0.041, P 0.162 ± 0.065, Y -0.072 ± 0.084, N 0.183 ± 0.11, W 0.023 ± 0.063, F -0.081 ± 0.086
R7: V -0.05 ± 0.11, F -0.179 ± 0.23, W -0.179 ± 0.11, K -0.292 ± 0.29, Q -0.092 ± 0.14, C -0.06 ± 0.4, H -0.284 ± 0.24, E -0.044 ± 0.096, G -0.135 ± 0.092, Y -0.125 ± 0.21, L 0.155 ± 0.058, M -0.089 ± 0.14, P -0.045 ± 0.1, I -0.247 ± 0.28, S -0.156 ± 0.097, A -0.243 ± 0.1
W26: C -0.626 ± 0.29, M -0.445 ± 0.13, E -0.921 ± 0.33, N -0.732 ± 0.35, K -0.813 ± 0.26
H22: Q 0.045 ± 0.088, M 0.028 ± 0.087, A -0.318 ± 0.15, K -0.199 ± 0.047, E 0.062 ± 0.14, V -0.17 ± 0.1, L -0.386 ± 0.069, D 0.116 ± 0.13, C -0.529 ± 0.33, S -0.246 ± 0.098, I -0.201 ± 0.3, R -0.266 ± 0.088, P -1.02 ± 0.34, Y -0.365 ± 0.21, N -0.007 ± 0.14, T -0.274 ± 0.092, G -0.106 ± 0.079
T16: S -0.087 ± 0.12, C -0.357 ± 0.45, Y -0.166 ± 0.47, W -0.021 ± 0.13, D -0.082 ± 0.38, K -0.057 ± 0.055, V -0.052 ± 0.15, P -0.277 ± 0.17, N -0.22 ± 0.33, G -0.142 ± 0.094, R -0.139 ± 0.12, Q -0.306 ± 0.21, A 0.086 ± 0.11, I -0.036 ± 0.3, L -0.108 ± 0.089, E -0.159 ± 0.18, M -0.022 ± 0.12, F 0 ± 0.24
R8: H -0.039 ± 0.14, F -0.174 ± 0.2, A -0.172 ± 0.099, M -0.108 ± 0.1, S -0.215 ± 0.09, W -0.452 ± 0.18, L -0.369 ± 0.1, V -0.297 ± 0.14, P -0.026 ± 0.12, I -0.406 ± 0.21, T -0.236 ± 0.14, Q -0.097 ± 0.11, C -0.301 ± 0.26, Y -0.403 ± 0.24, G -0.52 ± 0.12, D 0.015 ± 0.2, E 0.045 ± 0.13
I10: A 0.15 ± 0.11, M -0.012 ± 0.1, C -0.258 ± 0.17, S 0.231 ± 0.12, K 0.086 ± 0.12, Q 0.03 ± 0.1, F -0.216 ± 0.16, E 0.231 ± 0.08, P 0.26 ± 0.088, R 0.098 ± 0.072, Y -0.237 ± 0.19, T 0.092 ± 0.089, N 0.103 ± 0.23, G 0.163 ± 0.082, L -0.148 ± 0.069, W -0.197 ± 0.12, D 0.207 ± 0.16, H -0.033 ± 0.16, V 0.035 ± 0.075
E21: Q 0.066 ± 0.11, D -0.084 ± 0.24, I -0.474 ± 0.32, V -0.111 ± 0.11, K -0.243 ± 0.14, L -0.096 ± 0.073, G -0.151 ± 0.094, T -0.131 ± 0.14, A 0.017 ± 0.079, C -0.371 ± 0.22, S -0.086 ± 0.095, M -0.045 ± 0.1, W -0.295 ± 0.1, N -0.091 ± 0.19
Q20: T -0.029 ± 0.06, L -0.289 ± 0.08, C -0.176 ± 0.29, Y -0.109 ± 0.4, A -0.126 ± 0.11, D -0.054 ± 0.18, E -0.195 ± 0.14, S 0.047 ± 0.052, G -0.057 ± 0.12, N 0.218 ± 0.29, K 0.138 ± 0.19, M 0.046 ± 0.099, W -0.123 ± 0.11, V -0.137 ± 0.078, H 0.018 ± 0.35, R -0.077 ± 0.084, P -0.454 ± 0.21
V23: W -0.814 ± 0.1, F -0.686 ± 0.43, C -0.752 ± 0.22, I -0.386 ± 0.14, A -0.632 ± 0.14, Q -0.92 ± 0.3, R -0.74 ± 0.12, G -0.931 ± 0.27, P -0.044 ± 0.14, L -0.175 ± 0.068, D -0.759 ± 0.3, T -0.23 ± 0.13, K -0.752 ± 0.29, M -0.844 ± 0.3, S -0.538 ± 0.19
L17: W -0.203 ± 0.081, V 0.018 ± 0.065, R -0.042 ± 0.064, D 0.224 ± 0.24, G 0.09 ± 0.083, I 0.024 ± 0.21, K -0.085 ± 0.096, A 0.032 ± 0.075, H 0.081 ± 0.18, N -0.289 ± 0.17, Y -0.096 ± 0.16, F -0.132 ± 0.17, Q 0.037 ± 0.088, M -0.328 ± 0.14, T -0.011 ± 0.096, S 0.008 ± 0.099, E 0.087 ± 0.085
E6: C -0.23 ± 0.39, L 0.001 ± 0.068, A -0.185 ± 0.095, V -0.092 ± 0.082, H -0.377 ± 0.49, P -0.126 ± 0.091, M -0.163 ± 0.15, G -0.179 ± 0.09, N -0.022 ± 0.17, S -0.028 ± 0.084, Y -0.308 ± 0.21, Q -0.174 ± 0.15, I -0.087 ± 0.15, T -0.013 ± 0.13, F -0.435 ± 0.21
R24: W 0.054 ± 0.11, C -0.347 ± 0.28, M -0.131 ± 0.1, P -0.804 ± 0.22, I -0.183 ± 0.24, L -0.011 ± 0.07, T -0.058 ± 0.093, K -0.09 ± 0.098, S 0.093 ± 0.083, F -0.044 ± 0.39, G 0.039 ± 0.082, A 0.106 ± 0.082, H -0.161 ± 0.31, Y -0.278 ± 0.29, E -0.348 ± 0.17
N5: T 0.056 ± 0.08, P -0.017 ± 0.078, R -0.042 ± 0.054, Y -0.121 ± 0.12, S -0.152 ± 0.1, Q -0.228 ± 0.12
W18: D -0.803 ± 0.31, R -0.563 ± 0.12, Q -0.891 ± 0.1, G -0.458 ± 0.1, S -0.981 ± 0.35, M -0.616 ± 0.21, Y -0.759 ± 0.39, K -1.18 ± 0.31, L -0.868 ± 0.2, F -0.719 ± 0.49, P -0.753 ± 0.097, A -0.879 ± 0.14
Q25: L -0.093 ± 0.15, H -0.083 ± 0.25, C 0.036 ± 0.17, S -0.246 ± 0.12, M -0.187 ± 0.12, V 0.078 ± 0.091, F -0.106 ± 0.19, R -0.006 ± 0.081, N 0.092 ± 0.14, T -0.045 ± 0.081, G -0.039 ± 0.073, Y -0.143 ± 0.14, A -0.066 ± 0.091, P -0.915 ± 0.25, K 0.041 ± 0.13, E -0.334 ± 0.27, W -0.251 ± 0.1
P15: V -0.056 ± 0.048, D -0.489 ± 0.18, K -1.09 ± 0.31, C -0.398 ± 0.076, I -0.028 ± 0.085, R -0.92 ± 0.096, H -0.892 ± 0.28, S -0.565 ± 0.085, E -0.854 ± 0.13, W -0.942 ± 0.16, T -0.42 ± 0.08, Q -0.543 ± 0.13, F -0.851 ± 0.18, Y -0.512 ± 0.15, G -1.07 ± 0.12
V9: D -0.055 ± 0.3, F -0.018 ± 0.2, C 0.046 ± 0.17, M -0.156 ± 0.095, W 0 ± 0.091, H 0.099 ± 0.34, R 0.172 ± 0.059, S 0.212 ± 0.073, L -0.045 ± 0.068, A 0.14 ± 0.075, Y -0.605 ± 0.46, T 0.039 ± 0.098, N 0.18 ± 0.16, K 0.116 ± 0.098, I -0.122 ± 0.12
D14: L -0.51 ± 0.091, P -0.415 ± 0.26, I -0.467 ± 0.24, W -0.354 ± 0.14, Q 0.155 ± 0.27, R -0.701 ± 0.12, T -0.388 ± 0.12, N -0.063 ± 0.21, Y 0.011 ± 0.26, A -0.237 ± 0.1, F -0.517 ± 0.22, C -0.164 ± 0.15, K -0.564 ± 0.19, V -0.353 ± 0.1, S -0.229 ± 0.17, M -0.421 ± 0.14, E 0.096 ± 0.12
